Laboratory results published in patent US20220402989A1 (Regeneron, published 2022).

Tests used:
[1] = target: T1, human PD1 expressed endogenously on YT/STAT5 luc/Cl4 cells (human, UniProt Q15116 25-288); assay: flow cytometry (FACS) titration on YT/STAT5 luc/CL4 cells with endogenous hPD1, APC anti-human Fc-gamma secondary, MFI_APC
T1 construct: whole, on cells; also called hPD1; PD1+ cells
Procedure: To compare hPD1 binding of αhPD1-IL2Rα-IL2 proteins to their respective parental anti-hPD1 antibodies, YT/STAT5 luc/Cl4 cells expressing endogenous levels of hPD1 were washed twice with FACS wash (PBS+2% FBS) and resuspended at 1×10\hat{ }6 cells/ml in FACS wash. Cells (100 μl/well) were then plated in 96 well U bottom plates. Cells were spun down (1200 RPM, 5 minutes) and resuspended in 100 μl/well of the various antibody dilutions listed in mAb clone IDs. The antibody titrations were prepared starting at 20 μg/ml with a 6-fold dilution using FACS wash. Cells were incubated with the antibodies for 30 minutes at 4° C. The unbound antibodies were then removed by washing the cells twice using FACS wash. The cells were then resuspended in 100 μl/well of 1:200 dilution of APC-anti-human Fcγ secondary antibody. The cells were incubated for 30 minutes at 4° C. The unbound antibodies were then removed by washing the cells twice using FACS wash. The cells were then resuspended in 160 μl/well of FACS wash and run to test binding using BD FACSCanto™ Flow Cytometer.

[2] = target: human PD1 (amino acids M1-L288 of NP_005009.2 with a 2Q=>E mutation) stably expressed on engineered reporter … (human, UniProt Q15116 25-288); assay: cell-based or functional assay
Sequence of human PD1 (amino acids M1-L288 of NP_005009.2 with a 2Q=>E mutation) stably expressed on engineered reporter … (Q15116 25-288, change not shown): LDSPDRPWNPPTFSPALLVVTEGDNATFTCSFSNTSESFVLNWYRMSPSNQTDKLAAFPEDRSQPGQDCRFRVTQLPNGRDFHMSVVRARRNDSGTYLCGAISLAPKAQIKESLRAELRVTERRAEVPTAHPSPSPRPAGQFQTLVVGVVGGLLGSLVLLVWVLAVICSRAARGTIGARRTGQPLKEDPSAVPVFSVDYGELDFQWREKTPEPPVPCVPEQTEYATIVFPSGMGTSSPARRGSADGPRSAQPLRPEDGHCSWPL

[3] = target: T2, human PD-1 expressed with a C-terminal myc-myc-hexahistidine tag (human); assay: SPR (Biacore), antibody captured via anti-human Fc, hPD-1.mmH in solution, 25 C
T2 construct: also called hPD-1.mmH; hPD-1.mmh
T2 sequence (chain, as listed by the source limits assumed): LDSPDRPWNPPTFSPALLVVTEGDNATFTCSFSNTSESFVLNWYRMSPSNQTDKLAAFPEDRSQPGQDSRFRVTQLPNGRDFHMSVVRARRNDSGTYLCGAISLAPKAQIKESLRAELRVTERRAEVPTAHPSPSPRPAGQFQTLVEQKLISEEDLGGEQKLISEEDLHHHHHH
Procedure: The CM5 Biacore sensor surface was derivatized by amine coupling with a monoclonal mouse anti-human Fc antibody (GE, #BR-1008-39). All Biacore binding studies were performed in a buffer composed of 0.01M HEPES pH 7.4, 0.15M NaCl, 3 mM EDTA, 0.05% v/v Surfactant P20 (HBS-EP running buffer). […] Antibody-reagent association was monitored for 4 or 5 minutes, while dissociation in HBS-EP running buffer was monitored for 10 minutes. […] All binding kinetics experiments were performed at 25° C.
Kinetic association (kₐ) and dissociation (kd) rate constants were determined by fitting the real-time sensorgrams to a 1:1 binding model using Scrubber 2.0c curve fitting software. Binding dissociation equilibrium constants (KD) and dissociative half-lives (t½) were calculated from the kinetic rate constants as: […]

T1 sequence (Q15116 25-288): as the sequence (Q15116 25-288, change not shown) above

B1: REGN2810 (antibody, human IgG4 S228P, kappa, V domains shown)
VH: EVQLLESGGVLVQPGGSLRLSCAASGFTFSNFGMTWVRQAPGKGLEWVSGISGGGRDTYFADSVKGRFTISRDNSKNTLYLQMNSLKGEDTAVYYCVKWGNIYFDYWGQGTLVTVSS
VL: DIQMTQSPSSLSASVGDSITITCRASLSINTFLNWYQQKPGKAPNLLIYAASSLHGGVPSRFSGSGSGTDFTLTIRTLQPEDFATYYCQQSSNTPFTFGPGTVVDFRR
notes: Human IgG4 Fc with the S108P hinge mutation; also called mAb7798; cemiplimab
With B1 the EC50 [1] was 0.774 nM, the “EC50 (M), AP1-Luc PD1 antagonistic assay” value [2] was 3.67e-09 M and the “Fold induction, AP1-Luc PD1 antagonistic assay” value (from here on “Fold induction”) [2] was 19.2 fold. The “90 nM or 100 nM hPD-1.mmH Bind (RU)” value [3] was 88.7 RU, the Kd [3] was 2.56 nM and the koff [3] was 0.000253 s⁻¹. It also gave a kon [3] of 98800 M⁻¹ s⁻¹ and a t1/2 [3] of 45.7 min.

B2: mAb29512 (antibody, V domains shown)
VH: QVQLVQSGTEVRKPGSSVKVSCKTSGVTFNNYAITWVRQAPGQGLEWMGGIIPVFSPPNYAQKFQGRVTITADESTNTAYMELNSLRSDDTAIYFCAREGERGYTYGYDYWGQGTLVTVSS
VL: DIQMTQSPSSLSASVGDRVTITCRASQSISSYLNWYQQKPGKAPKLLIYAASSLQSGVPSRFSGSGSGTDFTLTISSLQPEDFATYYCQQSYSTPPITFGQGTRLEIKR
notes: The full chains are those of H4H29512 (human IgG4 Fc with S108P); also called H4H29512
In the case of B2, the EC50 [1] is reported as 5.69 nM, the “Fold induction” value [2] is reported as 1.29 fold and the “90 nM or 100 nM hPD-1.mmH Bind (RU)” value [3] is reported as 124 RU. The Kd [3] was 3.1 nM, the koff [3] was 0.000427 s⁻¹ and the kon [3] was 138000 M⁻¹ s⁻¹. The t1/2 [3] was 27.1 min.

B3: mAb9048 (antibody, V domains shown)
VH: QVQLVQSGAEVKRPGSSVKVSCKVSGVTFRNFAIIWVRQAPGQGLEWMGGIIPFFSAANYAQSFQGRVTITPDESTSTAFMELASLRSEDTAVYYCAREGERGHTYGFDYWGQGTLVTVSS
VL: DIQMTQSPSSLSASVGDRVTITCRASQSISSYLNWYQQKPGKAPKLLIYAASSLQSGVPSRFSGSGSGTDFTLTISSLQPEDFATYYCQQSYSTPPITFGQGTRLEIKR
notes: The full chains are those of H4H9048 (human IgG4 Fc with S108P); also called H4H9048
With B3 the EC50 [1] was 3.48 nM, the “Fold induction” value [2] was 1.24 fold and the “90 nM or 100 nM hPD-1.mmH Bind (RU)” value [3] was 52.7 RU. The Kd [3] was 8.95 nM, the koff [3] was 0.00123 s⁻¹ and the kon [3] was 137000 M⁻¹ s⁻¹. It also gave a t1/2 [3] of 9.4 min.
